Reference: PMC4874933
No end group written: not given here.

Biological target: fibrils composed of synthetic human λ6 variable domain (rVλ6Wil) (human)
Experiment: co-sedimentation

GGGYSKAQKAQAKQAKQAQKAQKAQAKQAKQAQKAQKAQAKQAKQA (also: Tc-99m label coupled directly, site not characterised) [Tc-99m labeled GGGY-p5+14 peptide]
% bound: 58%
